The values that follow come from patent US7618787B2, “Method of screening compound capable of accelerating or inhibiting apoptosis, apoptosis accelarator and apoptosis inhibitor” (Hisamitsu Pharmaceutical Co., Inc., priority 2004, dated 2009).

One test has as its system endogenous p53. Kind of test: Amount of endogenous p53 in cisplatin-treated U2OS cells (immunoblot). The format is cell-based, human. To be noted: cisplatin 24 hours (FIG. 30). For orientation: A western blot detects proteins with antibodies after separation by electrophoresis.
In test [1] the target is T1, p73 (Homo sapiens, UniProt O15350).
T1 construct: expressed in transfected cells; host or cells: COS7
T1 sequence (O15350 1-636): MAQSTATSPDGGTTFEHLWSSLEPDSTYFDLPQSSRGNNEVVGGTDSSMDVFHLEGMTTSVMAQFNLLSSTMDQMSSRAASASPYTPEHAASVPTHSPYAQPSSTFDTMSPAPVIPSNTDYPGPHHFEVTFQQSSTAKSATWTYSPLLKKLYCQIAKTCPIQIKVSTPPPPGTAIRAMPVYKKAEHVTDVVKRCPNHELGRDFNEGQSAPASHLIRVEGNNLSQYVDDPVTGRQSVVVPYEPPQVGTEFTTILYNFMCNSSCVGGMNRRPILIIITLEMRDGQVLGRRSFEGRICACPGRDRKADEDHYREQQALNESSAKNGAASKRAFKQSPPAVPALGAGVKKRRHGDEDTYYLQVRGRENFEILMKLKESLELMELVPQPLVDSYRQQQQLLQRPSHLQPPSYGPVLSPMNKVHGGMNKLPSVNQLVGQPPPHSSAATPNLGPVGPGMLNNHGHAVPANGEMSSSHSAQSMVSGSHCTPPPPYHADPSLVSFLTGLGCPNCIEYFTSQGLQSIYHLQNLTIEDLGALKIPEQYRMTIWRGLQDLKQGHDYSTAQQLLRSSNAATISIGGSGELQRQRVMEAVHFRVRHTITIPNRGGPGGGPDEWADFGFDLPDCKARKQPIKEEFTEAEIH
Kind of test: Co-immunoprecipitation with p73 in transfected COS7 cells. To be noted: COS7, co-immunoprecipitation (FIG. 10, FIG. 28). The format is binding. As for the experimental part: Whole cell lysates were centrifuged at 15000 rpm for 15 minutes to remove cell debris. The obtained supernatant was pretreated at 4° C. for 30 minutes with protein G-Sepharose (50% slurry, 30 μL; Amersham Pharmacia Biotech). After centrifugation, the supernatant was incubated at 4° C. for 2 hours with an anti-HA polyclonal (Medical and Biological Laboratories) or anti-FLAG monoclonal antibody. The immunocomplexes were precipitated at 4° C. for 30 minutes with protein G-Sepharose beads. After collection by brief centrifugation, the immunoprecipitates were washed three times with lysis buffer, then suspended in 30 μL of 2×Laemmli SDS sample buffer, and treated at 100° C. for 5 minutes. The supernatant was loaded onto 10% SDS-PAGE and analyzed by immunoblot as described above.
To investigate whether IKK-α interacted with p73 in cultured mammal cells, whole cell lysates were prepared from transfected COS7 cells, then immunoprecipitated with an anti-FLAG or anti-HA antibody, and analyzed by immunoblot using an anti-p73 or anti-FLAG antibody, respectively. […] Likewise, HA-p73β was co-immunoprecipitated with FLAG-IKK-α (data not shown). […] To identify determinants of p73 participating in the interaction with IKK-α, several deletion mutants of p73 fused to GST were prepared and examined for their abilities to bind to FLAG-IKK-α by in-vitro pull-down assay. These mutants were designed on the basis of the functional domains of p73 including transactivation, DNA-binding, oligomerization, and SAM domains (FIG. 12).

The next test has as its system U2OS or H1299 cells. Nature of the test: Apoptosis induced by cisplatin in transfected cells. The format is cell-based, human. To be noted: U2OS and H1299 (FIGS. 31 and 33).
Test [2] concerns the target T1, p73. Kind of test: p73 protein level (stabilization) by immunoblot in cotransfected COS7 cells. The format is cell-based. The settings on record: COS7 cotransfection (FIG. 14, 15, 29). The method, then: Cells were transiently transfected with a total of 2 μg of expression plasmids. After 48 hours of the transfection, the cells were washed with ice-cold PBS and suspended in lysis buffer (pH 8.0; which contained 25 mM Tris-Cl, 137 mM sodium chloride, 1% Triton X-100, 1 mM phenylmethylsulfonyl fluoride (PMSF), and protease inhibitor mix (Roche Molecular Biochemicals)), followed by brief sonication. After centrifugation at 15000 rpm for 10 minutes, the supernatant was collected and assayed for protein concentrations by the Bradford assay (Bio-Rad). Equal amounts of lysates (protein amount: 50 μg) from the whole cells were denatured by boiling in Laemmli SDS-sample buffer, then separated on 10% SDS-polyacrylamide gel (SDS-PAGE), and transferred at room temperature for 1 hour to polyvinylidene difluoride (PVDF) membranes (Immobilon-P; Millipore) in Tris-glycine buffer containing 10% methanol. The membranes were blocked at room temperature for 1 hour with Tris-buffered saline (TBS-T) containing 5% skim milk and 0.1% Tween 20.
As previously reported, some protein kinases (e.g., c-Abl and PKCδ) that interact with p73 can stabilize p73. To confirm whether IKK-α influenced the stabilization of p73, COS7 cells were transfected with a constant amount of HA-p73α expression plasmid together with or without varying amounts of IKK-α expression plasmids and examined for HA-p73α protein levels. […] Next, whether IKK-β influenced the stabilization of p73 and p53 was investigated by transient transfection.

Test [3] relates to H1299 cells. Kind of test: p53-dependent apoptosis (DAPI staining, abnormal nuclei). The format is cell-based, human. The settings on record: H1299, cotransfection with p53, 48 hours (FIG. 36). As for the experimental part:
(§1) To examine the influence of UFD2a on p73-dependent apoptosis, the following experiment was performed. p53-deficient H1299 cells were transiently cotransfected with the given combinations (HA-p73α, p53, and FLAG-UFD2a) of expression plasmids. After 48 hours of the transfection, the cells were fixed at room temperature for 30 minutes in 3.7% formaldehyde, then permeabilized at room temperature for 5 minutes with 0.2% Triton X-100, and blocked for 1 hour with 3% BSA. The cells were washed three times with 1×PBS and stained at room temperature for 20 minutes with DAPI (4′,6-diamidino-2-phenylindole; 1 μg/mL). Of the cells transfected with GFP, cells having abnormal nuclei were counted under a microscope.

The test system of another test is p53. Nature of the test: Amount of endogenous p53 in COS7 cells (immunoblot). The format is cell-based, African green monkey. To be noted: COS7, cisplatin 20 μg/mL for 24 hours (FIG. 35). As for the experimental part:
To examine the influence of UFD2a on endogenous p73, the following experiment was performed. COS7 cells were transfected or untransfected with a FLAG-UFD2a expression plasmid. After 24 hours of the transfection, the cells were exposed to cisplatin (final concentration: 20 μg/mL) for 24 hours or left untreated. Whole cell lysates were prepared from the transfected cells and analyzed for p73α, p53, and UFD2a expression by immunoblot. Actin was utilized as a control for addition.

Test [4] has as its system H1299 cells. Nature of the test: p73-dependent apoptosis (DAPI staining, abnormal nuclei). The format is cell-based, human. The settings on record: H1299, cotransfection with HA-p73α, 48 hours (FIG. 36). As for the experimental part:
as §1

B1: IKK-α (K44A): IKK-α with 44th lysine substituted by alanine, SEQ ID NO: 25, lacking kinase activity; apoptosis inhibitor (protein)
chain: MERPPGLRPGAGGPWEMRERLGTGGFGNVCLYQHRELDLKIAIASCRLELSTKNRERWCHEIQIMKKLNHANVVKACDVPEELNILIHDVPLLAMEYCSGGDLRKLLNKPENCCGLKESQILSLLSDIGSGIRYLHENKIIHRDLKPENIVLQDVGGKIIHKIIDLGYAKDVDQGSLCTSFVGTLQYLAPELFENKPYTATVDYWSFGTMVFECIAGYRPFLHHLQPFTWHEKIKKKDPKCIFACEEMSGEVRFSSHLPQPNSLCSLIVEPMENWLQLMLNWDPQQRGGPVDLTLKQPRCFVLMDHILNLKIVHILNMTSAKIISFLLPPDESLHSLQSRIERETGINTGSQELLSETGISLDPRKPASQCVLDGVRGCDSYMVYLFDKSKTVYEGPFASRSLSDCVNYIVQDSKIQLPIIQLRKVWAEAVHYVSGLKEDYSRLFQGQRAAMLSLLRYNANLTKMKNTLISASQQLKAKLEFFHKSIQLDLERYSEQMTYGISSEKMLKAWKEMEEKAIHYAEVGVIGYLEDQIMSLHAEIMELQKSPYGRRQGDLMESLEQRAIDLYKQLKHRPSDHSYSDSTEMVKIIVHTVQSQDRVLKELFGHLSKLLGCKQKIIDLLPKVEVALSNIKEADNTVMFMQGKRQKEIWHLLKIACTQSSARSLVGSSLEGAVTPQTSAWLPPTSAEHDHSLSCVVTPQDGETSAQMIEENLNCLGHLSTIIHEANEEQGNSMMNLDWSWLTE
modifications: IKK-alpha(K44A)
Consider B1, for which the “amount of endogenous p53” value with endogenous p53 is “no remarkable effect on the amount of endogenous p53”. In addition, the “complex formation with HA-p73α” value with p73 [1] is listed as “maintained the ability to form complexes with p73α”. The “apoptosis induced by cisplatin” value with U2OS or H1299 cells is reported as “remarkably inhibited”. Besides, in the test with p73 [2], the “amount of HA-p73α” value is reported as “almost no effect on the intracellular level of exogenously expressed HA-p73α”.

B2: UFD2a: UFD2a protein, SEQ ID NO: 26, U-box ubiquitin protein ligase; apoptosis inhibitor (protein, listed as Homo sapiens)
chain: MEELSADEIRRRRLARLAGGQTSQPTTPLTSPQRENPPGPPIAASAPGPSQSLGLNVHNMTPATSPIGASGVAHRSQSSEGVSSLSSSPSNSLETQSQSLSRSQSMDIDGVSCEKSMSQVDVDSGIENMEVDENDRREKRSLSDKEPSSGPEVSEEQALQLVCKIFRVSWKDRDRDVIFLSSLSAQFKQNPKEVFSDFKDLIGQILMEVLMMSTQTRDENPFASLTATSQPIAAAARSPDRNLLLNTGSNPGTSPMFCSVASFGASSLSSLGASGGASNWDSYSDHFTIETCKETDMLNYLIECFDRVGIEEKKAPKMCSQPAVSQLLSNIRSQCISHTALVLQGSLTQPRSLQQPSFLVPYMLCRNLPYGFIQELVRTTHQDEEVFKQIFIPILQGLALAAKECSLDSDYFKYPLMALGELCETKFGKTHPVCNLVASLRLWLPKSLSPGCGRELQRLSYLGAFFSFSVFAEDDVKVVEKYFSGPAITLENTRVVSQSLQHYLELGRQELFKILHSILLNGETREAALSYMAAVVNANMKKAQMQTDDRLVSTDGFMLNFLWVLQQLSTKIKLETVDPTYIFHPRCRITLPNDETRVNATMEDVNDWLTELYGDQPPFSEPKFPTECFFLTLHAHHLSILPSCRRYIRRLRAIRELNRTVEDLKNNESQWKDSPLATRHREMLKRCKTQLKKLVRCKACADAGLLDESFLRRCLNFYGLLIQLLLRILDPAYPDITLPLNSDVPKVFAALPEFYVEDVAEFLFFIVQYSPQALYEPCTQDIVMFLVVMLCNQNYIRNPYLVAKLVEVMFMTNPAVQPRTQKFFEMIENHPLSTKLLVPSLMKFYTDVEHTGATSEFYDKFTIRYHISTIFKSLWQNIAHHGTFMEEFNSGKQFVRYINMLINDTTFLLDESLESLKRIHEVQEEMKNKEQWDQLPRDQQQARQSQLAQDERVSRSYLALATETVDMFHILTKQVQKPFLRPELGPRLAAMLNFNLQQLCGPKCRDLKVENPEKYGFEPKKLLDQLTDIYLQLDCARFAKAIADDQRSYSKELFEEVISKMRKAGIKSTIAIEKFKLLAEKVEEIVAKNARAEIDYSDAPDEFRDPLMDTLMTDPVRLPSGTIMDRSIILRHLLNSPTDPFNRQTLTESMLEPVPELKEQIQAWMREKQNSDH
Take B2: the p53-dependent apoptosis result in the test with H1299 cells [3] is given as “could not suppress p53-dependent apoptosis”. Moreover, in the test with p53, the “amount of endogenous p53” value is listed as “no influence on the amount of endogenous p53”. Further, the “number of apoptotic cells, p73-dependent” value in the test with H1299 cells [4] is recorded as “decreased the number of apoptotic cells”.
